The labels stand for the following.
T1: human IL-17A (construct not specified) (human, UniProt Q16552 24-155, limits assumed)
T1 construct: also called huIL-17A
T1 sequence: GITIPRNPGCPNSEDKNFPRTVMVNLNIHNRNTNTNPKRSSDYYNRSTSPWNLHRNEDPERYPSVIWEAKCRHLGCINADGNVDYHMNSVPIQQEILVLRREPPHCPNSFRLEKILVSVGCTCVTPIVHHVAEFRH

B1: MB454 (Fab, V domains shown)
VH: EVQLVESGGDLVQPGGSLRLSCAASGFTFSSYWMSWVRQAPGKGLEWVANIKQDGSEKYYVDSVKGRFTISRDNAKNSLYLQMNSLRAEDTAVYYCARDRGSLYYWGQGTLVTVSS
VL: AIQLTQSPSSLSASVGDRVTITCRPSQGILWALAWYQQKPGKAPKLLIYDASSLENGVPSRFSGSGSGTDFTLTISSLQPEDFATYYCQQFNSYPLTFGGGTKVEIK
notes: Fab variant of XAB1
B2: MB432 (Fab, V domains shown)
VH: B1 VH
VL: B1 VL with W31F
notes: Fab variant of XAB1
B3: MB438 (Fab, V domains shown)
VH: B1 VH
VL: B1 VL with L30P, W31Y
notes: Fab variant of XAB1
B4: MB447 (Fab, V domains shown)
VH: B1 VH
VL: B1 VL with L30F, A32W
notes: Fab variant of XAB1
B5: MB444 (Fab, V domains shown)
VH: B1 VH
VL: B1 VL with A32E
notes: Fab variant of XAB1
B6: MB435 (Fab, V domains shown)
VH: B1 VH
VL: B1 VL with L30N, A32E
B7: MB440 (Fab, V domains shown)
VH: B1 VH
VL: B1 VL with A32Q
notes: Fab variant of XAB1
B8: MB448 (Fab, V domains shown)
VH: B1 VH
VL: B1 VL with L30V, A32M
notes: Fab variant of XAB1
B9: MB434 (Fab, V domains shown)
VH: B1 VH
VL: B1 VL with L30W, A32Y
notes: Fab variant of XAB1
B10: MB450 (Fab, V domains shown)
VH: B1 VH
VL: B1 VL with L30M, A32W
notes: Fab variant of XAB1
B11: MB433 (Fab, V domains shown)
VH: B1 VH
VL: B1 VL with L30Y, A32G
notes: Fab variant of XAB1

We go through eleven molecules from patent US20170291939A1 (Novartis, published 2017).

Substitutions are numbered along the chain they refer to.

One assay has as its target T1, human IL-17A (construct not specified). The assay is described as follows: ELISA, coated huIL-17A, then 200 nM XAB1 Fab as competitor. Background: ELISA stands for enzyme-linked immunosorbent assay.
As to B1, the “Competition ELISA (normalized to XAB1 Fab)” value came out at 36.6 fold.
Take B2: the “Competition ELISA (normalized to XAB1 Fab)” value worked out at 37.3 fold.
As for B3, the “Competition ELISA (normalized to XAB1 Fab)” value is 41.1 fold.
Regarding B4, the “Competition ELISA (normalized to XAB1 Fab)” value worked out at 57 fold.
B5: the “Competition ELISA (normalized to XAB1 Fab)” value was found to be 52.4 fold.
On to B6, for which the “Competition ELISA (normalized to XAB1 Fab)” value was 44.6 fold.
With B7, the “Competition ELISA (normalized to XAB1 Fab)” value is 54 fold.
Turning to B8, the “Competition ELISA (normalized to XAB1 Fab)” value was found to be 51.5 fold.
For B9, the “Competition ELISA (normalized to XAB1 Fab)” value turned out to be 39.5 fold.
The same measure, in the same setting: as for B10, the figure is 53.3 fold.
As to B11, the “Competition ELISA (normalized to XAB1 Fab)” value was 29.3 fold.

A further assay has the same target. The assay is described as follows: ELISA, coated huIL-17A, crude Fab extract.
Turning to B1, the “Classic ELISA (normalized to XAB1 Fab)” value is 2.9 fold.
With B2, the “Classic ELISA (normalized to XAB1 Fab)” value was found to be 2.3 fold.
As for B3, the “Classic ELISA (normalized to XAB1 Fab)” value came to 2.7 fold.
The same measure, in the same setting: the result for B4 reads 3 fold; that for B5, 3.2 fold; that for B6, 2.7 fold.
Still for that read-out and setting: the result for B7 reads 2.8 fold; that for B8, 2.9 fold.
Take B9: the “Classic ELISA (normalized to XAB1 Fab)” value amounted to 2.4 fold.
On to B10, for which the “Classic ELISA (normalized to XAB1 Fab)” value was found to be 2.9 fold.
B11: the “Classic ELISA (normalized to XAB1 Fab)” value stood at 2.3 fold.

A further assay shares this target. The experiment in a line: ELISA, coated huIL-17A, long wash.
For B1, the “Off-rate ELISA (normalized to XAB1 Fab)” value was found to be 34.2 fold.
Regarding B2, the “Off-rate ELISA (normalized to XAB1 Fab)” value was found to be 44.2 fold.
For B3, the “Off-rate ELISA (normalized to XAB1 Fab)” value was 41.5 fold.
Still for that read-out and setting: the result for B4 reads 45.5 fold; that for B5, 48.9 fold; that for B6, 44.7 fold.
Turning to B7, the “Off-rate ELISA (normalized to XAB1 Fab)” value was 52.5 fold.
With B8, the “Off-rate ELISA (normalized to XAB1 Fab)” value was 40.4 fold.
As for B9, the “Off-rate ELISA (normalized to XAB1 Fab)” value stood at 44.4 fold.
On the same count and under the same terms, as for B10, the figure is 41.5 fold.
As for B11, the “Off-rate ELISA (normalized to XAB1 Fab)” value was found to be 39.7 fold.
